This note sets out measurements from patent publication EP4796567A2 (Nepenthe Bioscience, LLC, dated 2026).

Changes are numbered by the printed parent chain.

First the molecules themselves.
T1: CD79 (UniProt P11912 33-143; P40259 29-159, limits assumed)
T1 construct: also called CD79 antigen; soluble biotinylated CD79 antigen
T1 sequence (looked up) 1: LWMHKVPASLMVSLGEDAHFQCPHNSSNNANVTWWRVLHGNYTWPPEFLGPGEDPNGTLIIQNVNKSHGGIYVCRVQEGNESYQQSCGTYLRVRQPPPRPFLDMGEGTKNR
T1 sequence (looked up) 2: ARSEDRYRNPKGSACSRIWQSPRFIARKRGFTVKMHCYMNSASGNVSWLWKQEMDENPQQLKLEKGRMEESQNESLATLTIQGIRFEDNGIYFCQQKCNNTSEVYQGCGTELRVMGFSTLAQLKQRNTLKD

B1: chimeric anti-CD79 antibody HcLc (antibody, V domains shown)
VH: QVQLQQSGPELVKPGASVKISCKASGYAFSYSWMNWVKQRPGKGLEWIGRIYPENGDTNYNGKFKGKVTLTADKSSSTAYMQLSSLTSEDSAVYFCARWVYGYPHFDYWGQGTTLTVSS
VL: not shown
notes: Mouse VH fused to human IgG2 CH1, CH2 and CH3 domains; mouse VL fused to a human kappa CL domain
B2: humanized anti-CD79 antibody H1L2 (antibody, V domains shown)
VH: QVQLVQSGAEVKKPGASVKVSCKASGYAFSYSWMNWVRQAPGQGLEWMGRIYPENGDTNYNGKFKGRVTMTRDTSISTAYMELSRLRSDDTAVYYCARWVYGYPHFDYWGQGTLVTVSS
VL: DVVMTQSPLSLPVTLGQPASISCKSSQSLLDSDGKTYLNWLQQRPGQSPRRLIYLVSKLDSGVPDRFSGSGSGTDFTLKISRVEAEDVGVYYCWQGTHFPFTFGGGTKVEIK
notes: also called LB495/PRI47; PRI43/PRI47
B3: humanized anti-CD79 antibody H2L1 (antibody, V domains shown)
VH: B2 VH with R72A
VL: B2 VL with L41F
B4: humanized anti-CD79 antibody H2L3 (antibody, V domains shown)
VH: B2 VH with R72A
VL: B2 VL with R50K
B5: humanized anti-CD79 antibody H3L2 (antibody, V domains shown)
VH: B2 VH with M48I, M70L, R72A, T74K
VL: B2 VL
B6: humanized anti-CD79 antibody H2L2 (antibody, V domains shown)
VH: B2 VH with R72A
VL: B2 VL
B7: humanized anti-CD79 antibody H3L3 (antibody, V domains shown)
VH: B2 VH with M48I, M70L, R72A, T74K
VL: B2 VL with R50K
B8: humanized anti-CD79 antibody H1L1 (antibody, V domains shown)
VH: B2 VH
VL: B2 VL with L41F
B9: humanized anti-CD79 antibody H3L1 (antibody, V domains shown)
VH: B2 VH with M48I, M70L, R72A, T74K
VL: B2 VL with L41F
B10: humanized anti-CD79 antibody H1L3 (antibody, V domains shown)
VH: B2 VH
VL: B2 VL with R50K
B11: engineered anti-CD79 antibody LB630/519 (antibody, V domains shown)
VH: B2 VH with N55S, Y103L
VL: B2 VL with F99L
notes: First NG motif of VH CDR2 engineered to NS; Produced in 293 cells by transient transfection; also called LB630/LB519
B12: engineered anti-CD79 antibody LB631/519 (antibody, V domains shown)
VH: B2 VH with N61A, Y103L
VL: B2 VL with F99L
notes: Second NG motif of VH CDR2 engineered to NA; Produced in 293 cells by transient transfection; also called LB631/LB519
B13: humanized anti-CD79 antibody LB517/LB519 (antibody, V domains shown)
VH: B2 VH with Y103L
VL: B2 VL with F99L
notes: Full length IgG produced from 293 cells; also called hCur14 FALA
B14: engineered anti-CD79 antibody LB632/519 (antibody, V domains shown)
VH: B2 VH with N55S, N61A, Y103L
VL: B2 VL with F99L
notes: Both NG motifs of VH CDR2 engineered; Produced in 293 cells by transient transfection; also called LB632/LB519
B15: affinity matured anti-CD79 antibody LB495/520 (antibody, V domains shown)
VH: B2 VH
VL: B2 VL with F99R
notes: Full length IgG produced from 293 cells; also called LB495/LB520
B16: affinity matured anti-CD79 antibody LB495/521 (antibody, V domains shown)
VH: B2 VH
VL: B2 VL with F99V
notes: Full length IgG produced from 293 cells; also called LB495/LB521
B17: affinity matured anti-CD79 antibody LB517/PRI47 (antibody, V domains shown)
VH: B2 VH with Y103L
VL: B2 VL
notes: Full length IgG produced from 293 cells
B18: affinity matured anti-CD79 antibody LB517/518 (antibody, V domains shown)
VH: B2 VH with Y103L
VL: B2 VL with F99I
notes: Full length IgG produced from 293 cells; also called LB517/LB518
B19: affinity matured anti-CD79 antibody LB495/519 (antibody, V domains shown)
VH: B2 VH
VL: B2 VL with F99L
notes: Full length IgG produced from 293 cells; also called LB495/LB519
B20: affinity matured anti-CD79 antibody LB495/518 (antibody, V domains shown)
VH: B2 VH
VL: B2 VL with F99I
notes: Full length IgG produced from 293 cells; also called LB495/LB518
B21: affinity matured anti-CD79 antibody LB517/520 (antibody, V domains shown)
VH: B2 VH with Y103L
VL: B2 VL with F99R
notes: Full length IgG produced from 293 cells; also called LB517/LB520
B22: affinity matured anti-CD79 antibody LB517/521 (antibody, V domains shown)
VH: B2 VH with Y103L
VL: B2 VL with F99V
notes: Full length IgG produced from 293 cells; also called LB517/LB521

One assay concerns the target T1, CD79. The assay is described as follows: binding kinetics to CD79; method not named (antibody is the 'Loading Sample').
B1 came in with a Kd of 60 nM, a koff of 0.0056 s⁻¹ and a kon of 93000 M⁻¹ s⁻¹.
On the same counts, the results for B2 are 45 nM, 0.0041 s⁻¹ and 91000 M⁻¹ s⁻¹.
In turn, B3 showed a Kd of 90 nM, a koff of 0.0071 s⁻¹ and a kon of 79000 M⁻¹ s⁻¹.
Take B4: the equilibrium dissociation constant (Kd) turned out to be 61 nM, the koff was determined as 0.0051 s⁻¹ and the kon stood at 84000 M⁻¹ s⁻¹.
The molecule B5 yielded a Kd of 140 nM, a koff of 0.0086 s⁻¹ and a kon of 61000 M⁻¹ s⁻¹.
B6 yielded a Kd of 46 nM, a koff of 0.0046 s⁻¹ and an association rate constant (kon) of 100000 M⁻¹ s⁻¹.
In the case of B7, the Kd stood at 130 nM, the koff amounted to 0.011 s⁻¹ and the kon is 79000 M⁻¹ s⁻¹.
The matching figures for B8: 59 nM, 0.0054 s⁻¹ and 92000 M⁻¹ s⁻¹.
The matching figures for B9: 290 nM, 0.013 s⁻¹ and 43000 M⁻¹ s⁻¹.
B10 gave a Kd of 49 nM, a koff of 0.004 s⁻¹ and a kon of 82000 M⁻¹ s⁻¹.

For the next assay, the target named is T1, CD79. The assay is described as follows: antigen binding kinetics; method not named (antibody is the 'Loading Sample').
B2: the affinity, expressed as Kd, was 9.22 nM; the koff is 0.000384 s⁻¹; the kon is 41700 M⁻¹ s⁻¹.
As to B11, the Kd was under 0.001 nM, the koff is under 1e-07 s⁻¹ and the kon came to 55800 M⁻¹ s⁻¹.
On the same counts, the results for B12 are 1.04 nM, 6.1e-05 s⁻¹ and 58600 M⁻¹ s⁻¹.
Molecule B13 registered a Kd of 0.706 nM, a koff of 4.14e-05 s⁻¹ and a kon of 58700 M⁻¹ s⁻¹.
The matching figures for B14: 0.837 nM, 5.11e-05 s⁻¹ and 61000 M⁻¹ s⁻¹.

The target of the next assay is T1, CD79. As to the kind of experiment: binding kinetics of full length IgG to CD79; method not named (antibody is the 'Loading Sample').
For B2, the Kd came to 5.1 nM, the koff came out at 0.000429 s⁻¹ and the kon was determined as 84100 M⁻¹ s⁻¹.
In turn, B15 registered a Kd of 3.76 nM, a koff of 0.000374 s⁻¹ and a kon of 99600 M⁻¹ s⁻¹.
B16 yielded a Kd of 3.65 nM, a koff of 0.000362 s⁻¹ and a kon of 99100 M⁻¹ s⁻¹.
On the same counts, the results for B17 are 3.55 nM, 0.000311 s⁻¹ and 87500 M⁻¹ s⁻¹.
The matching figures for B18: 2.24 nM, 0.000199 s⁻¹ and 88500 M⁻¹ s⁻¹.
The matching figures for B19: 3.14 nM, 0.000252 s⁻¹ and 80300 M⁻¹ s⁻¹.
For B20, binding was characterised by a dissociation constant (Kd) of 3.64 nM, the koff came out at 0.000332 s⁻¹ and the kon stood at 91200 M⁻¹ s⁻¹.
On the same counts, the results for B21 are 2.4 nM, 0.000234 s⁻¹ and 97800 M⁻¹ s⁻¹.
In the case of B13, the Kd stood at 2 nM, the off-rate constant (koff) is 0.000159 s⁻¹ and the kon is 79700 M⁻¹ s⁻¹.
As for B22, binding was put at a Kd of 2.3 nM, the koff was 0.000201 s⁻¹ and the kon was 87500 M⁻¹ s⁻¹.

One may read the Kd as the concentration at which binding is half-saturated. As usually defined, the koff is the rate constant with which the complex falls apart. The low end stands for slow dissociation, the high end for fast dissociation. The term kon denotes the rate constant with which the complex forms.
